Tests used:
Test in all cases: immunoblotting after reducing SDS-PAGE
[1] = molecular target: T1, recombinant human ADAMTS1 (R&D Systems) (human, UniProt Q9UHI8 253-967, limits assumed)
T1 sequence (looked up): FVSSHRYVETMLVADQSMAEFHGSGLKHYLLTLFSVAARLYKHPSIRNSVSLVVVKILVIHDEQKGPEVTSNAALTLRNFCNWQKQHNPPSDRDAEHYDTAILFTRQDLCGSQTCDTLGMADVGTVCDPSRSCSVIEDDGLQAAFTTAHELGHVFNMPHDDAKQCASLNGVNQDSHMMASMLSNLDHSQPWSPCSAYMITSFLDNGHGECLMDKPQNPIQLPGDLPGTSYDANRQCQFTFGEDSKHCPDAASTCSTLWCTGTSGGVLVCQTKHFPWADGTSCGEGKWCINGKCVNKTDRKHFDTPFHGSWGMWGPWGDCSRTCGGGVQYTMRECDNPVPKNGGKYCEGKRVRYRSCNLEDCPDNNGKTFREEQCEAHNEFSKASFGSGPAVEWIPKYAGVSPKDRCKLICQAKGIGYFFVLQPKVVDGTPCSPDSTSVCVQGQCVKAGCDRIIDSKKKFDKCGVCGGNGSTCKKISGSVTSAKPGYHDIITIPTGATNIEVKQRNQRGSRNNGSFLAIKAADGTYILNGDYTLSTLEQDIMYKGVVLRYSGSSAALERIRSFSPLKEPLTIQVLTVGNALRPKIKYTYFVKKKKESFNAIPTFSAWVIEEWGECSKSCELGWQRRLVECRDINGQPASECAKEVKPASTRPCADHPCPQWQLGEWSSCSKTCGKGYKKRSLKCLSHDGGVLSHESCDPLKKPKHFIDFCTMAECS
Excerpt: (§1) Recombinant proteins of human ADAMTS1 (R&D Systems), ADAMTS4, ADAMTS5 (R&D Systems), ADAMTS15 (R&D Systems), ADAM10 (R&D Systems), ADAM12 (Mochida Pharmaceutical Co., Ltd., Tokyo, Japan), ADAM17 (R&D Systems) and MMP-13 (Millipore, Billerica, Mass.) and purified human MMP-1, MMP-2, MMP-3 and MMP-9 (Daiichi Fine Chemical, Co., Ltd., Toyama, Japan) were subjected to sodium dodecyl sulfate-polyacrylamide gel electrophoresis (SDS-PAGE) under reducing conditions, and the samples resolved on the gels were transferred onto polyvinylidene difluoride (PVDF) membranes. […] After washing with phosphate buffered saline containing 0.1% Tween 20, the membranes were reacted with horseradish peroxidase-conjugated secondary antibody against human IgG (Invitrogen, Carlsbad, Calif.) for 1 h at room temperature. A chemiluminescence reagent (Pierce ECL western blotting substrate; Thermo Fisher Scientific, Waltham, Mass.) was used to make the labeled protein bands visible. All the samples were also examined on silver-stained gels, which were prepared by silver stain kit (Cosmo Bio Co., Ltd, […].).

[2] = molecular target: recombinant human ADAM17 (R&D Systems) (human, UniProt P78536 215-671, limits assumed)
Chain of recombinant human ADAM17 (R&D Systems) (P78536 215-671 limits assumed): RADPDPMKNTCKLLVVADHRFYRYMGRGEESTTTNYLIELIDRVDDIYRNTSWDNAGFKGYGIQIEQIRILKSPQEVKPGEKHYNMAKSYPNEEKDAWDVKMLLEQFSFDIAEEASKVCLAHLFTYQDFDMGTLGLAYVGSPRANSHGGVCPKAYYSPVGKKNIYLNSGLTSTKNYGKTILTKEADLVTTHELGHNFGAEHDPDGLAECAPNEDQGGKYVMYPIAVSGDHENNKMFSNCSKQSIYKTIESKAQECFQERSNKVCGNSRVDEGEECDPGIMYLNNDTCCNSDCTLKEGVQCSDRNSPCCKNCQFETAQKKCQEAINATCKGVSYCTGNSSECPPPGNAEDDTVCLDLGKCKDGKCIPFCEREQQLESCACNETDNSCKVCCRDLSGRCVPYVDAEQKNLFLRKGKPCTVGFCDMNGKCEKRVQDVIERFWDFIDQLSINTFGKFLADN
Excerpt: as §1

[3] = molecular target: T2, purified human MMP-1 (Daiichi Fine Chemical) (human, UniProt P03956 20-469, limits assumed)
T2 sequence (looked up): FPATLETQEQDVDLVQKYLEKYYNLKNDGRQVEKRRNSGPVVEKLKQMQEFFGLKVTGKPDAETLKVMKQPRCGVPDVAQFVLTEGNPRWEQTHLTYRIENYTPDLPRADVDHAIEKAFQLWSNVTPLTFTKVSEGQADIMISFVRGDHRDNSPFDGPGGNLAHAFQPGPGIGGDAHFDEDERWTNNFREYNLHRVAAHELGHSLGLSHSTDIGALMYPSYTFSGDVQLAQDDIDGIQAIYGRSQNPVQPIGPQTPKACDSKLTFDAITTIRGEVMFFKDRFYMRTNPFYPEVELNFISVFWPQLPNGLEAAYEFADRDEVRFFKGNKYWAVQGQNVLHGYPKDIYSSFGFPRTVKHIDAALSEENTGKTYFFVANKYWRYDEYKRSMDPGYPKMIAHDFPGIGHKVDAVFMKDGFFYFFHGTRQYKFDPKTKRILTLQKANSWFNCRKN
Excerpt: as §1

[4] = molecular target: purified human MMP-3 (Daiichi Fine Chemical) (human, UniProt P08254 18-477, limits assumed)
Chain of purified human MMP-3 (Daiichi Fine Chemical) (P08254 18-477 limits assumed): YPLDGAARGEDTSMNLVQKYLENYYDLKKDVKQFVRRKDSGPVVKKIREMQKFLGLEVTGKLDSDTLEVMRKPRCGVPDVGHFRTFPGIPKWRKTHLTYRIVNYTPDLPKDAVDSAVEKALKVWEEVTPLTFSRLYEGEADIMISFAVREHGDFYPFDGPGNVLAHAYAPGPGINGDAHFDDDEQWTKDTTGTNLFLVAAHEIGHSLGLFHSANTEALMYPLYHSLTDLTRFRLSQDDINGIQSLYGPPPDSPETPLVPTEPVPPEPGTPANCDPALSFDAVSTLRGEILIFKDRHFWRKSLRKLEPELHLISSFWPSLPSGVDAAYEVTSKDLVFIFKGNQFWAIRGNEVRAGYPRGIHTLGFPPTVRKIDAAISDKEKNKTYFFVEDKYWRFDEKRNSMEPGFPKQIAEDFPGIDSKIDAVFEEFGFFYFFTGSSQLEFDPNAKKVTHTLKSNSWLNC
Excerpt: as §1

[5] = molecular target: recombinant human MMP-13 (Millipore) (human, UniProt P45452 20-471, limits assumed)
Excerpt: as §1

Measured: binding result

B1: Fab of clone 237-53 (Fab, V domains shown)
VH: QVQLVQSGAEVKKPGSSVKVSCKASGGTFSSFAISWVRQAPGQGLEWMGGIFPIFGQANYAQKFQGRVTITADESTSTAYMELSSLRSEDTAVYYCARFSDWWEWQMDYWGQGTLVTVSS
VL: DIVMTQSPDSLAVSLGERATINCRSSQSILYSSNNNYLAWYQQKPGQPPKLLIHTASARESGVPDRFSGSGSGTDFTLTISSLQAEDVAVYYCQQYYSVSITFGQGTKVEIKR
no binding (tested: 5 µg/ml): all assays above

From patent publication US20160304622A1 (GENEFRONTIER, published 2016)
